This is an account of results in patent US20210206877A1 (Genentech, published 2021).

Where two headings read alike, the source gives them in different places.

Test in all cases: cell-based or functional assay
In test [1] the target is T1, BACE1 endogenous to primary cortical neurons from E16.5 CD1 mice (mouse, UniProt P56818 46-501).
In test [2] the target is T1, BACE1 endogenous to primary cortical …. This is another data set of the same source.
Test [3] has the same target. The source holds these as a separate data set.

T1 sequence (P56818 46-501): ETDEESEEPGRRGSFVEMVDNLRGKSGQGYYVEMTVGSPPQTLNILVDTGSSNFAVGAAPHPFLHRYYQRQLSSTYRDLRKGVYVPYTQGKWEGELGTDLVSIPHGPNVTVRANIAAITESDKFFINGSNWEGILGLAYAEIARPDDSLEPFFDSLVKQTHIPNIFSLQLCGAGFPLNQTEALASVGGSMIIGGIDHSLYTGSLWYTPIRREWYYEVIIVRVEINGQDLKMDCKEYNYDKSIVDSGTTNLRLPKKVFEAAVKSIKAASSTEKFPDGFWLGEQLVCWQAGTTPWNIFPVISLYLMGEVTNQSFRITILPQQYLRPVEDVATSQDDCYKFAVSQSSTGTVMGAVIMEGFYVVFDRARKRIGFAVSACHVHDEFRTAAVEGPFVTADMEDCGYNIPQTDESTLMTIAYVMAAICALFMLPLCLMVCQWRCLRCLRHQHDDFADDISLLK

B1: antibody 6266 (antibody, V domains shown)
VH: EVQLVQSGAEVKKPGSSVKVSCKASGGTLSGYGVSWVRQAPGQGLEWMGNIIPGFGTANYAQKFQGRVTITADESTSTAYMELSSLRSEDTAVYYCARSGGTKYGMLDVWGQGTMVTVSS
VL: EIVMTQSPATLSVSPGERATLSCRASQSVSSNLAWYQQKPGQAPRLLIYGASTRATGIPARFSGSGSGTEFTLTISSLQSEDFAVYYCQQLILWPPRTFGGGTKVEIK
Consider B1, for which the “max % inhibition, Abeta x-40 in mouse cortical neurons” value (“max % inhibition” for short) in test [1] came out at 87%. The “IC50, inhibition of Aβx-40 production in primary mouse cortical neuron cultures (sandwich ELISA of supernatants)” value in test [2] came out at 1.7 nM.

B2: 6311 (antibody, V domains shown)
VH: QLQLQESGPGLVKPSETLSLTCTVSGGSISWSSYYWSWIRQPPGKGLEWIGSIYRSGRTYYNPSLKSRVTISVDTSKNQFSLKLSSVTAADTAVYYCARVGHGINYFDLWGRGTLVTVSS
VL: EIVLTQSPATLSLSPGERATLSCRASQSVSSYLAWYQQKPGQAPRLLIYDASNRATGIPARFSGSGSGTDFTLTISSLEPEDFAVYYCQQSLTWPPRTFGGGTKVEIK
Turning to B2, the “max % inhibition” value in test [3] is 63%.

B3: 6315 (antibody, V domains shown)
VH: QLQLQESGPGLVKPSETLSLTCTVSGGSISRGSYYWGWIRQPPGKGLEWIGMIYYSGSTWYNPSLKSRVTISVDTSKNQFSLKLSSVTAADTAVYYCARVGHGVSYFDLWGRGTLVTVSS
VL: EIVLTQSPATLSLSPGERATLSCRASQSVSSYLAWYQQKPGQAPRLLIYDASKRATGIPARFSGSGSGTDFTLTISSLEPEDFAVYYCQQSLVWPPRTFGGGAKVEIK
As for B3, the “max % inhibition” value in test [3] was determined as 73%.

B4: 6314 (antibody, V domains shown)
VH: QLQLQESGPGLVKPSETLSLTCTVSGGSISRGSYYWGWIRQPPGKGLEWIGMIYYSGSTWYNPSLKSRVTISVDTSKNQFSLKLSSVTAADTAVYYCARVGHGVSYFDLWGRGTLVTVSS
VL: EIVLTQSPATLSLSPGERATLSCRASQSVSSYLAWYQQKPGQAPRLLIYDASNRATGIPARFSGSGSGTDFTLTISSLEPEDFAVYYCQQSIVWPPRTFGGGTKVEIK
Regarding B4, in test [3], the “max % inhibition” value is 71%.

B5: 6313 (antibody, V domains shown)
VH: QLQLQESGPGLVKPSETLSLTCTVSGGSISRGSYYWGWIRQPPGKGLEWIGMIYYSGSTWYNPSLKSRVTISVDTSKNQFSLKLSSVTAADTAVYYCARVGHGVSYFDLWGRGTLVTVSS
VL: EIVLTQSPATLSLSPGERATLSCRASQSVSSYLAWYQQKPGQAPRLLIYDASNRATGIPARFSGSGSGTDFTLTISSLEPEDFAVYYCQQAYVWPPRTFGGGTKVEIK
B5: the “max % inhibition” value in test [3] is 67%.
